{"source": "paper PMC10619557", "about": "“Crystal Structures of 6-Phosphogluconate Dehydrogenase from Corynebacterium glutamicum” (Journal of Microbiology and Biotechnology, 2023)", "target": "6-phosphogluconate dehydrogenase from Corynebacterium glutamicum ATCC 13032 (Corynebacterium glutamicum ATCC 13032)", "assay": "SEC; analytical, Superdex 200 Increase 10/300 GL; 1 ml at 1 mg/ml; 40 mM Tris-HCl pH 8.0, 150 mM NaCl; mass from a calibration curve", "data": [{"substance": "6-phosphogluconate dehydrogenase from Corynebacterium glutamicum ATCC 13032 (enzyme)", "values": [{"measurement": "stoichiometry N", "value": 2}]}]}
